Test results: US20140286960A1 (CANGENE, published 2014)

Target: Staphylococcus aureus alpha-hemolysin (Staphylococcus aureus, UniProt P09616)
Sequence (P09616 27-319 limits assumed): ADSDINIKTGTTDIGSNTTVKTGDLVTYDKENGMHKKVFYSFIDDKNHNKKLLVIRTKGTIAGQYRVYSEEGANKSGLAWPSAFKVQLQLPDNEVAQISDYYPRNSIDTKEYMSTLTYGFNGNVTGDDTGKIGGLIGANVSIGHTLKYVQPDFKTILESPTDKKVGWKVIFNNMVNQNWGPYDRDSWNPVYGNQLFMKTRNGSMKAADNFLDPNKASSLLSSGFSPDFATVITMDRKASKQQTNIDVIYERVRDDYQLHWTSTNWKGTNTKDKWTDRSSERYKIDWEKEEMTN

B1: CAN24G4 monoclonal antibody (antibody, V domains shown)
VH: EVHLQQSGAELVKPGASVRLSCTGSGLDIKDTYIHWVKKRPEQGLEWIGRIDPANGITKYDPKFQGKATVTADTSSNTAYLQFSSLTSEDSAVYYCSSEYYPYPMDYWGQGTSVTVSS
VL: DIKMTQPPSSMYASLGERVTVTCKASQDISSFLTWFQQKPGKSPKILIYRANRVVDGVPSRFSGSGSGHDYSLTISSLESEDMGIYYCLQYDEFPWTFGGGTKLEIK
B1 gave a Kd of 9.4 nM, a koff of 0.004 s⁻¹ and a kon of 430000 M⁻¹ s⁻¹.
